From patent US20220025012A1 (HANMI PHARM, published 2022) come the findings set out here.

For one experiment, the target named is human GLP-1 receptor (human, UniProt P43220 24-463). The experiment in a line: cell-based or functional assay.
A further experiment has as its target human glucagon receptor (human, UniProt P47871 26-477). Briefly: cell-based or functional assay.

Square brackets hold non-standard residues; d marks the D form. Ends that are not written are not given here. αMeE = C[C@](N)(CCC(=O)O)C(=O)O

human glucagon receptor, sequence (P47871 26-477): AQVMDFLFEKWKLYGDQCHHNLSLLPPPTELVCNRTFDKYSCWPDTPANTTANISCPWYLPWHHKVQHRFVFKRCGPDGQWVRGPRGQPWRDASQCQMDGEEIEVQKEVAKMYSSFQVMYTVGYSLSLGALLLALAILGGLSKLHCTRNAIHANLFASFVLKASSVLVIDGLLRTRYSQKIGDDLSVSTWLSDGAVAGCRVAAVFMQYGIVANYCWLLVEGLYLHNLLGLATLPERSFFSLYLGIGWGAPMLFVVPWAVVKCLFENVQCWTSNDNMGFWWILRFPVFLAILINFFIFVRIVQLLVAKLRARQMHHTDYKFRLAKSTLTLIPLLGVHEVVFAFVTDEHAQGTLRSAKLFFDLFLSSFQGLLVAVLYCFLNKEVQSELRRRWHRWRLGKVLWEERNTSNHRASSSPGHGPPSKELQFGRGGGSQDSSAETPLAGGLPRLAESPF

For H[αMeE]QGTFTSDYSKYLCEKRAKEFVQWLMNT (not fully specified) [glucagon derivative of SEQ ID NO: 12], in the experiment with human GLP-1 receptor, the “EC50 (nM), cAMP concentration in CHO cells expressing hGLP-IR” value (shortened to “EC50 … in CHO cells expressing hGLP-IR”) is 0.96 nM. In addition, the “EC50 (nM), cAMP concentration in CHO cells expressing hGCGR” value (from here on “EC50 (nM) … in CHO cells expressing hGCGR”) with human glucagon receptor was found to be 1.38 nM.

Regarding H[αMeE]QGTFTSDYSKYLDEKCAKEFVQWLMNT (not fully specified) [glucagon derivative of SEQ ID NO: 14], in the experiment with human GLP-1 receptor, the “EC50 … in CHO cells expressing hGLP-IR” value was determined as 0.17 nM. Also, the “EC50 (nM) … in CHO cells expressing hGCGR” value with human glucagon receptor stood at 0.38 nM.

As to H[αMeE]QGTFTSDYSKYLDECRAKEFVQWLMNT (not fully specified) [glucagon derivative of SEQ ID NO: 13], the “EC50 … in CHO cells expressing hGLP-IR” value in the experiment with human GLP-1 receptor stood at 0.27 nM. Further, in the experiment with human glucagon receptor, the “EC50 (nM) … in CHO cells expressing hGCGR” value is 0.23 nM.
